# B1: ICAM-1 peptide 70-74 (DGQST) (peptide)
# peptide: DGQST
# B2: ICAM-R peptide 230-234 (GDQML) (peptide)
# peptide: GDQML
# B3: ICAM-1 peptide 228-232 (GDQRL) (peptide)
# peptide: GDQRL
# B4: ICAM-R peptide 72-76 (NGSQI) (peptide)
# peptide: NGSQI
# B5: ICAM-R peptide 32-38 (peptide)
# peptide: EKIALET
# B6: ICAM-R peptide 271-276 (peptide)
# peptide: GERREA
# Target: CD18-independent counterreceptor for ICAM-R on Jurkat cells
# Assay: cell adhesion to coated shICAM-R, peptide 1-2 mg/ml
row,% Inhibition CD18-Independent Binding (Jurkat) [%],Binder
1,9,B1
2,36,B2
3,22,B3
4,17,B4
5,10,B5
6,11,B6

# Reference: patent US20010029293A1
